In article doi:10.1101/2024.06.06.597810 (bioRxiv, 2024):

Target: T1, SARS-CoV-2 spike stem helix peptide (residues 1146-1159), displayed on yeast (SARS-CoV-2)
T1 chain: DSFKEELDKYFKNH
Test: flow cytometry on cells
Conditions: partners not purified

B1: S2P6 VH E1Q/VL E105D in scFv format (scFv, V domains shown)
VH: QVQLVQSGAEVKKPGASVKVSCKASGYTFTSQYMHWVRQAPGQGLEWIGIINPSGVHTSYAQKFQGRVTLTRDTSTSTLYMELSSLRSEDTAVYYCARGSPKGAFDYWGQGTLVTVSS
VL: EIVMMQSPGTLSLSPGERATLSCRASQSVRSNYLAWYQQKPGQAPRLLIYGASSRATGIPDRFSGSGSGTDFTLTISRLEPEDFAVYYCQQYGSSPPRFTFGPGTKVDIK
notes: not shown: HA, C-terminal, kept
Question: Does B1 bind?
Answer: binds
